According to the nanobody polyreactivity screen of Harvey et al. (2022):

test: yeast display, Sf9 membrane polyspecificity reagent, FACS + sequencing; frameworks hold sequencing errors
Summary of the method: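 After 36–48 hours of galactose induction, yeast (Saccharomyces cerevisiae BJ5465) displaying a synthetic nanobody library were stained at 4 °C for 1 hour with 10% biotinylated, detergent-solubilized Sf9 membrane reagent. Streptavidin microbeads enriched the stained cells before FACS sorting into low and high (top ~1%) gates on anti-HA and streptavidin fluorescence. Each clone's polyreactivity label reflects its gate of origin.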

| Sequence | polyreactivity (PSR sort gate) |
| --- | --- |
| QVQLVESGGGLVQAGGSLRLSCAASGSTFSVYAMGWYRQAPGKERELVASISSSVGRTFYADSVKGRFTISRDNAKNTVYLQMNSLKPEDTAVYYCAARSYQVKEYDHWGQGTQVTVSS | high polyreactivity |
| KVHLVESGGGLVQAGGSLRLSCAASGRIFRYYAMGWYRHAPGKERELVAAIRYLGASTYYADSVKGRFTISRDNAKNTVYLQMNSLKPEDTAVYYCNRTPRSKGNYWGQGTLVTVSS | high polyreactivity |
| QVQLVESGGGLVQAGGSLRLSCAASGSIIHDNAMGWYRQAPGKERELVAAINRGGSTHYADSVKGRFTISRDNAKNTVYLQMNSLKPEDTAVYYCAADGIRPEVGYWGQGTQVTVSS | low polyreactivity |
| QVQLVESGGGLVQAGGSLRLSCAASGRTFWNYAMGWYRQAPGKERELVAVIRFSDGSTYYSDSVKGRFTISRDKAKNTVYLQMNSLKPEDTAVYYCGAKGPRRWGSGFDYWGQGTQVNVSS | low polyreactivity |
| QVHLVETGGGLVHAGGSLRLSCASSGNIFSWYAMGWYRQAPGKEREFVAVIRGRGGSTYYADSVKGRFTISRDNAKNNVYLLMKSLKPEDTAVYYCAIRGFVLYFYRSGYGYGYWGQGTQVTVSS | low polyreactivity |
| QVQLVESGGGLVQAGGSLRLSCAASGRIFPGYAMGWYRQAPGKERELVAAISGSGVRTYYADSVKGRFTISRDNAKNTVYLQMNSLKPEDTAVYYCAADSKIRTKLDYWGQGTQVTVSS | low polyreactivity |
| QDQLVESGGGLVQAGGSLRLSCAASASTFPYNPMGRYRQAPRKERELVAAITATDDSTYYADSVKGRFTISRDNAKNTVYLQMNSLKPEDTAVYYCAADFGGYVFYFGYDYWGQGTQVTVSS | low polyreactivity |
| QVQLVESGGGLVQAGGSLRLSCAASGGIFPFNGMGWYRQAPGKERELVAAISSGGRTYYADSVKGRFTISRDNAKNTVYLQMNSLKPEDTAVYYCAARTSRYYYYPYAFYWGQGTQVTVSS | high polyreactivity |
| QVQLVESGGGLVQAGGSLRLSCAASARTFTRYAIGWYRQAPGKERELVAAISFSVGSTYYADSVKGRFTISRDNAKYSVYLQMNRLKPEDTAVYYCARPSGDAWEGPRMDYWGQCTQVTVSS | low polyreactivity |
| QVQLVESGGGLVQAGGSLRLSCAASGGTLYLYAMGWYRQAPGKERELVAAISYNGGSTYAESVKGRFTISRDNAKNTVYLQKNSLKPEDTAVYYCAADRSPRGLGGYWGQGTQVTVSS | low polyreactivity |
| QVQLVESGGGLVQAGGRLRLSCAASGRTFDVYAMVWYRQAPGKERELVAAISKRGGSTYYADSVKGRFTISRDNAKNTVYLQMNSLKPEDTAVYYCNAYQTGWKGYDYWGQGTQVTVSS | high polyreactivity |
| QVQLVESGGGLVQAGGSLRLSCAASGIILTPNAMGWYRQAPGTERELVAAIDWRDGITYYADSVKGRFTISRDNAKNTVYLQMNSLKPEDTAVYYCAATFSRGYDYWGQGTQVTVSS | high polyreactivity |
| QVQLVESGGGLVQAGGSLRLSCAASGIIFRFNGMGWYRQAPGKEREFVAAISGGAGSTYYADSVKGRFTISRDNAKNTVYLQMNSLKPEDTAVYYCAAVWRTRWASGYYWGQGTQVTVSS | high polyreactivity |
| QVQLVESGGGLVQAGGSLRLSCAASGRTFSYYAMGWYRQAPGKERELVAAITSSGTGTYYADSVKGRFTISRDNAKNTVYLQMNSLKPEDTAVYYCAVLTTSKSRVKLYYWGQGTQVTVSS | high polyreactivity |
| QVQLVESGGGLVQAGGSLRLSCAASGRTLARYAMGGYRQAPGKERELVAAISSSGGSTYYADSVKGRFTISRDNAKNTVYLQMNSLKPEDTAVYYCAAGWRYRYFRSRNFYPYYYWGQGTQVTVSS | high polyreactivity |
| QVQLVESGGGLVQAGGSLRLSCAASGSTFRHNAMGRYRPAPGKERELVAAITRSGGRTFYADSVKGRFTISRDNAKNTVYLQMNSLKPEDTAVYYCAAERITPYDSSSAYDYWGQGTQVTVSS | low polyreactivity |
| QVQLVESGGGLVQAGGSLRLSCAAYGITFGANAMGWYRQAPGKERELVADITWSGGDTYYADSVKGRFTISRDNAKYTVYLQMTSLIPEDTAVYYCNALQPGLGSPLGEYDFWGQGTQVTVSS | low polyreactivity |
| QVQLVESGGGLVQAGGSLRLSCAASGFIFFTNAMGWYRQAPGKERELVAAITDDGSTYYADSVKGRFTISRDNAKNTVYLQMNSLKPEDTAVYYCNVVLQDPSYSWFWYDYDYWGQGTQVTVSS | high polyreactivity |
| QVQLVESGGGLVQAGGSLRLSCAASGFIFTGNAMGWYRQAPGKERELVAAISKRGGRTYYADSVKGRFTISRDNAKNTVYLQMNSLKPEDTAVYYCAAVGYAYTYAEYYYWGQGTQVTVSS | high polyreactivity |
| QVQLVESGGGLVQAGGSLRLSCAASGIIFDDYAMGWYRQAPGKERELVAAISRGGSTYYADSVKGRFTISRDNAKNTVYIQMNSLKPEDTAVYYCAAVVYTIYARYGYCGQGTQVTVSS | high polyreactivity |
| QVQLVESGGGLVQAGGSLRLSCAASGSTFQYYAMGWYRQAPGKEGELVATINSGGSTNYADSVKGRFTISRDNAKNTVYLQMNSLKPEDTAVYYCARRVRYKHYDYWGQGTQVTVSS | high polyreactivity |
| QVQLVESGGGLVQAGGSLRLSCAASGFIFHTTVMVSYRQAPAKERELVAAISSGDSTYYADSVKGRFTISRDNAKNTVYLHMNSLKPEDTEVYYCARNVNAQKVLGGFDSWGQGTQVTVSS | low polyreactivity |
| QVQLVESGGGLVQAGCSLRLSSAASGSTFRANAMGWYRQAPGKERELVAAITSGGSTNYADSVKGRFTISRDNAKNTVYLQMNRRKPEDTAVYYCADESYQEHSFYVYYGYDYWGQGTQVTVSS | low polyreactivity |
| QVQLVESGGGLVQAGGSLRISCAPSGSIFSDYAMGWYRQAPGKERELVATISSSGSTNYADSVKGRFTISRDNAKNTVYLQMNSLKPEDTAVYYCAAARLFAMDYWGQGTQVTVSS | low polyreactivity |
| QVQLVESGGGLVQAGGSLRLSCAASGRTFLVNAMGWYRQAPGKEREFVAAITSRSSGSTYYADSVTGRFTISRDKAKNTVYFQLNSQKPEDTAVYYCAARGHLRYESDYWGQGTQVTVSS | high polyreactivity |
| QVQLVESGGGLVQAGGSLRLSCAASGSTFVYNAMGWYRQAPGKERELVAAISRGGGITYYADSVKGRFTISRDNAKNTVYLQMNSLKPEDTAVYYCNKSRYKSYSYDYWGQGTQVTVSS | high polyreactivity |
| QVQLVESGGGLVQAGGSLRLICAASGSISTPYTMGWYRQAPGKERELVAAISWIGDTTSYADSVKGRFTISRDNAKNTVYLQMNSLKPEDTAVYYCNAEHRGYDYWGQGTQVTVSS | low polyreactivity |
| QVQLVESGGGLVQAGGSLRLSCAASGRIFLWYAMGWYRQAPGKERELVAAISSNGGSTRYADSVKGRFTFSRDNAKNTVYLQMNSLKPEDTAVYYCNADVHWNRYPYGGNGYGYWGQGTQVTVSS | low polyreactivity |
| QVQLVESGGGLVQAGGSLRLSCAASGFTFSDNAMGWYRQAPGKERELVAAISRSGGNTHYADSVKGRFTISRDNAKNTVFLQMNSLKPEDTAVYYCAARPPGGYLYDYWGQGTQVTVSS | high polyreactivity |
| QVQLVESGGGLVQAGGSLRLSCAASGFTLYGNVMGWYRQAPGKERELVASISWSGGNTYYADSVKGRFTISRDNAKNTVYLQMNSLKPEDTAVYYCNANYYDKYGYWGQGTQVTVSS | low polyreactivity |
